According to PMC10018365, “Cryo-EM structure of the fully assembled Elongator complex” (Nucleic Acids Research, 2023):

B1: Saccharomyces cerevisiae Elp456 subcomplex (hetero-hexameric ring) (complex)
chain 1: MSFRKRGEILNDRGSGLRGPLLRGPPRTSSTPLRTGNRRAPGNVPLSDTTARLKKLNIADESKTKMGLDSSHVGVRPSPATSQPTTSTGSADLDSILGHMGLPLGNSVLVEEQSTTEFHSILGKLFAAQGIVHNRISDSSADKTRNGDTHVIVLSLNQMFAKELPGIYKGSRKQMKKNLISEEESKVTVQNLNETQRSTPSRYKDLKIAWKYKLADEKRLGSPDRDDIQQNSEYKDYNHQFDITTRLMPAPIASELTFIAPTQPVSTILSQIEQTIKRNDKKLIRIVIPSLLHPAMYPPKMFESSEIIGLMHGVRSLVKKYYERVVLFASISIDIITPPLLVLLRNMFDSVINLEPFNQEMTEFLERVYKSQPGKIQHGLVHILKLPVFTDRGEMRVLKSEWAFKNGRKKFEIEQWGIPVDDAEGSAASEQSHSHSHSDEISHNIPAKKTKISLDY
chain 2: MASSSHNPVILLKRILSLTESSPFILCLDSIAQTSYKLIQEFVHQSKSKGNEYPIVYISFETVNKPSYCTQFIDATQMDFVHLVKQIISYLPAATATQAKKHMVIIDSLNYISTEYITRFLSEIASPHCTMVATYHKDIKDENRTVIPDWNNNYPDKLTLLQFMATTIVDIDVVLTGTLDTEEVSELLNEFRIPRGLNNDIFQLRLVNKRKSGRSLEYDFIVNSNTHEYELLSTTKQEEESSSNGLETPEMLQGLTTFNLGTSNKQKLAKDQVALPFLEAQSFGQGGAIVYEYEKDDDYDEEDPYEDPF
chain 3: MGSVQRQDLVLFSDQSVLPAHFFQDSNSHNLFFITHQSCTQPLWMINALVETHVLGSPSSLNESSSSMLPSSTRSHAVLASFIHEQNYFTNSLNKLKIPSNNYNVLDFLSDFIVNNIHNKPRDKILSDVLAKFSAAIQNNPTDTIVIIEQPELLLSLVSGLTCSELNNKFITPLLRQCKVLIIVSNSDIFNIDEYDASVHSSNLQNFYKSSFIKSMINLNLNPLKTGFAKDVTGSLHVCRGGAPIATSNTSLHVVENEYLYLNEKESTKLFYR
notes: Elp4, S. cerevisiae, full-length ORF; Elp5, S. cerevisiae, full-length ORF; Elp6, S. cerevisiae, full-length ORF; Symmetric dimer of trimers; also called ScElp456; yeast Elp456; source: S. cerevisiae DS1-2b, overexpressed, purified with ScElongator (IgG Sepharose with TEV elution, StrepTrap, Superose 6); free rings seen in one data set; not shown: protein A (Staphylococcus aureus), C-terminal, …
B2: Saccharomyces cerevisiae Elp6 (natural protein, UniProt Q04868 1-273, looked up)
chain: B1 chain 3
notes: Elp6, S. cerevisiae, full-length ORF; also called ScElp6; source: S. cerevisiae DS1-2b, overexpressed, purified within ScElongator; not shown: protein A (Staphylococcus aureus), C-terminal, cleaved
B3: Saccharomyces cerevisiae Elp5 (natural protein, UniProt P38874 1-309, looked up)
chain: B1 chain 2
notes: Elp5, S. cerevisiae, full-length ORF; also called ScElp5; source: S. cerevisiae DS1-2b, overexpressed, purified within ScElongator
B4: Saccharomyces cerevisiae Elp4 (natural protein, UniProt Q02884 1-456, looked up)
chain: B1 chain 1
notes: Elp4, S. cerevisiae, full-length ORF; also called ScElp4; source: S. cerevisiae DS1-2b, overexpressed, purified within ScElongator

Assays:
Conditions in all cases: both partners purified
[1] = molecular target: T1, Saccharomyces cerevisiae Elp123 subcomplex (Saccharomyces cerevisiae, UniProt Q06706 1-1349; P42935 1-788; Q02908 1-557); assay: cryo-EM structure; ScElongator purified from overexpressing yeast, native sample (4.35 Å) and BS3-stabilised sample (6.6 Å; two-lobed map 17.2 Å); sample buffer 20 mM HEPES pH 7.5, 100 mM NaCl, 3 mM DTT
T1 construct: Elp1, S. cerevisiae, full-length ORF; Elp2, S. cerevisiae, full-length ORF; Elp3, S. cerevisiae, full-length ORF; also called ScElp123; yeast Elp123; not shown: Twin-Strep-tag, C-terminal, kept; copies: 2 + 2 + 2

[2] = molecular target: B3; assay: cryo-EM structure; free full-length ScElp456 rings found in one data set, 3.7 Å
[3] = molecular target: B4; assay: as above
[4] = molecular target: T2, Saccharomyces cerevisiae Elp3 (Saccharomyces cerevisiae, UniProt Q02908 1-557); assay: cryo-EM structure; ScElongator purified from overexpressing yeast, native sample (4.35 Å) and BS3-stabilised sample (6.6 Å; two-lobed map 17.2 Å); sample buffer 20 mM HEPES pH 7.5, 100 mM NaCl, 3 mM DTT
T2 construct: Elp3, S. cerevisiae, full-length ORF; also called ScElp3; source: S. cerevisiae DS1-2b, overexpressed, purified within ScElongator; not shown: Twin-Strep-tag, C-terminal, kept
T2 sequence (looked up): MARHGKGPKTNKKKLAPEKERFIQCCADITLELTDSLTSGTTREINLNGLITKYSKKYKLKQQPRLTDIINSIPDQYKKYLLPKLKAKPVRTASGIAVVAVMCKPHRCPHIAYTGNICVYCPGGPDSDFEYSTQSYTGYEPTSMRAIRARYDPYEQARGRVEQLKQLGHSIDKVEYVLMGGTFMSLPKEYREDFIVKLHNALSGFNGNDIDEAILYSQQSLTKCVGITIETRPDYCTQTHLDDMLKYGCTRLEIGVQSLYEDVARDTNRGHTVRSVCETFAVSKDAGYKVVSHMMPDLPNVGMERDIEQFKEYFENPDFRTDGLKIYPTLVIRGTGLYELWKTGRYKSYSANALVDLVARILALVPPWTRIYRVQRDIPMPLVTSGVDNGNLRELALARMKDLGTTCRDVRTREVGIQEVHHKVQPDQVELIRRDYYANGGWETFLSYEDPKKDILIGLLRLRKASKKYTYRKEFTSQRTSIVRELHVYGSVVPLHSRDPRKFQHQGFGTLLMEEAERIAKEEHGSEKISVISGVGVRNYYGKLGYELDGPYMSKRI

[5] = molecular target: T3, Saccharomyces cerevisiae Elp1 (Saccharomyces cerevisiae, UniProt Q06706 1-1349); assay: as above
T3 construct: Elp1, S. cerevisiae, full-length ORF; also called ScElp1; source: S. cerevisiae DS1-2b, overexpressed, purified within ScElongator
T3 sequence (looked up): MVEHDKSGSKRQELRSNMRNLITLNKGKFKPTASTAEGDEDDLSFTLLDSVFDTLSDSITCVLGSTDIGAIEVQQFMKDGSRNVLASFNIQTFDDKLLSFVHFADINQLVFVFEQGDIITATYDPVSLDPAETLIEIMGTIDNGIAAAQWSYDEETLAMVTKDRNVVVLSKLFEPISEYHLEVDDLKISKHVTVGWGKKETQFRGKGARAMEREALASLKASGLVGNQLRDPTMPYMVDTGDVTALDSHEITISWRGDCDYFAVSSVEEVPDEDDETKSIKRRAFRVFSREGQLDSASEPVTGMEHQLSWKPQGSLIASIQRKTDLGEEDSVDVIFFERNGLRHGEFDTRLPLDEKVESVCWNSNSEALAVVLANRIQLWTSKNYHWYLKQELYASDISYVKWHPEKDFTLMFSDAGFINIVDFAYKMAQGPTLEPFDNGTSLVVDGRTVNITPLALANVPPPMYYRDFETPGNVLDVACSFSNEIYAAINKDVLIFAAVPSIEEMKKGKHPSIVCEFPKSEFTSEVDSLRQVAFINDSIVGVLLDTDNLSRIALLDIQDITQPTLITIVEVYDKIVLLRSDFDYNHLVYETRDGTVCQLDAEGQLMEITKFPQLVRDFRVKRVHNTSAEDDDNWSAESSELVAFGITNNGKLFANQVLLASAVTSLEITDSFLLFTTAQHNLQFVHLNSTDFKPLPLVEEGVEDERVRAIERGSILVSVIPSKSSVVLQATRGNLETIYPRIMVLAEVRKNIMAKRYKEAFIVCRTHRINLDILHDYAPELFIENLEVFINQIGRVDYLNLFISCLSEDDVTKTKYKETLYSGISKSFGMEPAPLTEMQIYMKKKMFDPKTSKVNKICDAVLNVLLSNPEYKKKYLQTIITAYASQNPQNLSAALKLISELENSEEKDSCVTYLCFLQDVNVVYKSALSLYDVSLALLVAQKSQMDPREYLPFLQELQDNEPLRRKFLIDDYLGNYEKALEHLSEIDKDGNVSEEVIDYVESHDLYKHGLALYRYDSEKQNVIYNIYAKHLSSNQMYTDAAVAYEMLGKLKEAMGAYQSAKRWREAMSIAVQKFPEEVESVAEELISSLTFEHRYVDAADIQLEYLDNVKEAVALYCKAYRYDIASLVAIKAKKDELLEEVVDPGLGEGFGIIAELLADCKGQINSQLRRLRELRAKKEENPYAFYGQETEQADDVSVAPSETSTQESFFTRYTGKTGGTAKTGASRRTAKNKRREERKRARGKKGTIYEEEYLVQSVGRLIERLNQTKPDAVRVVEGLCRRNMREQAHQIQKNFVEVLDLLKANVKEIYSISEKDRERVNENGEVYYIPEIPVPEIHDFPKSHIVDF

T1 sequence (P42935 whole entry, one chain of several): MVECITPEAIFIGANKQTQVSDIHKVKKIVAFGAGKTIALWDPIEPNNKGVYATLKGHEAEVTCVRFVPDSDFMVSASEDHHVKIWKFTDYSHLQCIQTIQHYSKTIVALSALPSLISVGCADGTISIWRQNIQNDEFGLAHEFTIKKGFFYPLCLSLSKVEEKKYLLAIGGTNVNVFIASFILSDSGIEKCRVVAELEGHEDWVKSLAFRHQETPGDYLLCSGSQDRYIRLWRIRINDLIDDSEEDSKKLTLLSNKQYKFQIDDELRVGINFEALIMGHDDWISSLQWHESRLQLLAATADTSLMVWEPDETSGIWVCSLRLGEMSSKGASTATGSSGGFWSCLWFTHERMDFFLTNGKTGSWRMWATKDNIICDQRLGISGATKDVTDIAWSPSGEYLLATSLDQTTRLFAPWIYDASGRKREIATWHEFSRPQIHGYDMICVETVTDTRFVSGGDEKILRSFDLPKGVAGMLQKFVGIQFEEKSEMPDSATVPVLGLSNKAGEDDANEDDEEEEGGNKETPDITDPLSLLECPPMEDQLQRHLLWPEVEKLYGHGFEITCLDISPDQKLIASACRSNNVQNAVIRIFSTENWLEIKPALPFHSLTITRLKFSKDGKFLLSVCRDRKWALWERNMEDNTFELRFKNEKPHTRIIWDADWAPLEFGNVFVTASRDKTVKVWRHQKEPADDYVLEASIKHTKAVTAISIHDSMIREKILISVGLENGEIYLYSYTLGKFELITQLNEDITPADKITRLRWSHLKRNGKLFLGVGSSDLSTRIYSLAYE

Binder	binding result [1]	binding result [2]	binding result [3]	binding result [4]	binding result [5]
B1	binds				
B2		binds	binds	binds	
B3			binds		binds
B4				binds	binds
